Measured values from a protein production outcome set (Wang et al. 2014).

Assay: label from the status in PepcDB records

For “MNVTGKLRGLISFSTVLPLKSEASIEDIASLTLHWPLVGALIGVAVGSAGVAASLVFPGAVVACVAYGFAIWFTGFHHLDGLIDMGDALMSHGSFERKIEIMRDPRIGTGGLGLLLIVSSTTIAAIYSLPQGVLFQGLLIGEVSAKVCLTGCARVSRPLDGGTGRHFIMASRSPFTGMVWIFWAVAAYLLAGVPGAVSVAVAVLSGVFIGLVARRNFYWSTGDVLGASNEVGRMMSLLGLLAAIRLTGL”, the protein production was “failed”.

With “MTISRTQQIQQLEQEWTSPRWKNITRPYSAEDVIKLRGSVNPECTFAQNGAKKLWELLHGGSRKGYINCLGALTGGQALQQAKAGVEAIYMSGWQVAADANTASSMYPDQSLYPVDSVPAVVKRINNSFRRADQIQWSNNIEPGSKGYTDYFLPIVADAEAGFGGVLNAFELMKAMIEAGAAGVHFEDQLAAVKKCGHMGGKVLVPTQEAIQKLVAARLAADVLGVPTLLIARTDADAADLLTSDCDPYDREFITGDRTAEGFFRTRAGIEQAISRGLAYAPYADLVWCETSTPDLALAKRFADAVHAQFPGKLLAYNCSPSFNWKKNLTDQQIASFQDELSAMGYKYQFITLAGIHSMWFNMFDLAHAYAQGEGMKHYVEKVQQPEFASVDRGYTFASHQQEVGTGYFDKVTNIIQGGASSVTALTGSTEEQQF” the protein production was “not failed”.

In the case of “MSFNTIIDWNSCTAEQQRQLLMRPAISASESITRTVNDILDNVKARGDEALREYSAKFDKTTVTALKVSAEEIAAASERLSDELKQAMAVAVKNIETFHTAQKLPPVDVETQPGVRCQQVTRPVASVGLYIPGGSAPLFSTVLMLATPASIAGCKKVVLCSPPPIADEILYAAQLCGVQDVFNVGGAQAIAALAFGTESVPKVDKIFGPGNAFVTEAKRQVSQRLDGAAIDMPAGPSEVLVIADSGATPDFVASDLLSQAEHGPDSQVILLTPAADMARRVAEAVERQLAELPRAETARQALNASRLIVTKDLAQCVEISNQYGPEHLIIQTRNARELVDSITSAGSVFLGDWSPESAGDYASGTNHVLPTYGYTATCSSLGLADFQKRMTVQELSKEGFSALASTIETLAAAERLTAHKNAVTLRVNALKEQA”, the protein production was “not failed”.

For “HYTPKSLTEAIVAETLTPLTYFGPVEGSACKEWTLKTPAELLDLKICDPAMGSGAFLVQACRWLADRLVEAWAQAEIKGKIINVDGNVLDDLSSNELMPHDIDARINIARYLIAERCLYGIDLNPLAVELAKLSIWLVTLAKGRPFGFLDHSLRCGDSLLGIHQVNQLIELSVLTNSDDQDTLFSKDIRKAIYDASKLRQRLREMPIGDIHDIEEMERLNTEAHKRLYKAKKIADALVGEIFATGANFSAREARLKMLSLKLKESVEEDENIFMEISYQGTVKLQQELPSGRSKRIPIHWPLEFPEVFIRTCSGFDAIIGNPPFLGGRKITGVFGNLYREYLVANIAKGERGSSADLVAYFFLRSFYLLRESGCLGLIAVNSIAEGDSRQIGLERLLQSGAQIFSATPNEPWPGKAAVVTSRIHLIKGAFFGEKLLNGKKVAIISAFLSDQNEWSPKILKENLGQS”, the protein production was “failed”.

In the case of “MSLSYLTEEKLTIVGAAGMIGSNMAQTAAMMRLTPNLCLYDPFAVGLEGVAEEIRHCGFEGLNLTFTSDIKEALTDAKYIVSSGGAPRKEGMTREDLLKGNAEIAAQLGKDIKSYCPDCKHVIIIFNPADITGLVTLIYSGLKPSQVTTLAGLDSTRLQSELAKHFGIKQSLVTNTRTYGGHGEQMAVFASTAKVNGTPLTDLIGTDKLTNEQWAELKQRVVKGGANIIKLRGRSSFQSPSYVSIEMIRAAMGGEAFRWPAGCYVNVPGFEHIMMAMETTITKDGVKHSDINQLGNEAERAALKESYSHLAKLRDEVIAMGIIPAIADWKTVNPNEGHHHHHH”, the protein production was “not failed”.

For “MAKLSPTTRIFALVIKEILTLFKDPKGRIVLIAPPLLQLLIFSFAATMEIKNISIGILNQDFGKHGYEVIQRFIGSPTFSKVFFIQKQSDIKPIIDNQEAMVVMTIPQDFSRKIESNSQANIQLILDGRRSNATQIVNGYISSIIENYNQEIQKTHGAIMTPPVMVTRSWFNENLLYLWFTVPSLVCILSMLISLVVTALSVARERELGTFDQLLVSPLTPYEILIGKTIPAIIIGLAEGLLMWVAAVWLFDVPFYGSPLLMVYILFIFIMSTVGVGLFISSMCKTQQQAILGVFIYMVPVVTLSGYASPVENMPEWLQDLTWFNPLKFTLIAVIGIFLKGMSALEVFITTWPLLLVGAVTLFIAGWFFKQRME”, the protein production was “failed”.

With “MAVPRWAVRDLTQISSARELSLRLEQARNDFRATVGSICYFNASARTPGQFDDEYIMTDQSLTYVYADGVTAQSCAMNRLLPSSSSNFGAAATAIPPWLLDPPRLNRLLREGTDEGGLVNYYEGPHKNAFFLAIMRSCIFVRPGADEINGVSYDFFARSGNYTEQLEHHHHHH” the protein production was “failed”.

In the case of “MQSRSDGSWVLTLSRRLDAPSGEFAGVVLVTLQLKYFQNYYSTFEVGPHGTIGMTNDDGIVMVRRPDKQGVIGTSIAGTSIYVTMRARKHGTATYRSPIDRVERISSFAPARPYPLTVLTGFSVDDALANWRETARQRIVVAALGCTLLLGVGIWLDLQLRRMHRNEAKLSTEAWVDALTGIANRRAFDHRLSRALQDAVRLEAPLSVLMIDVDHFKLYNDTYGHVNGDACLRLIAGAIAGCSRRSEDLAARYGGEEFGMILPHTDAAGALRLADAVRNAVAELGLMHLSSPTSAHVTVSIGAATFEPGEAPLSPNAIVHDADSALYRAKQKGRNRTSA”, the protein production was “failed”.

With “MANLGMTGVADGNNSEQTYLGQINYQDQTITKASAKKLNREIDLQRASQLTLWAMPMVGMYQSYNSTIALFDLQEGDAPIIGLHEGYDGVYPFLTANVTTPYTISLVDLSETGPYVVNIPAGSIFGVANNAWQEPIKEIGSGNKETLLFVGPGQEYPKDFDGEVIQSDTNQILYFYRVLGVGAEAEKLKTAVTAYKLSDVANPPQVKFVIYKPKASDADVTIATQPRGMAYWEVVNQYIQNEPMADRDRFFYAWLKDLGIEKGKAFNPTPYQKEILLEGVNTGMAMAQSLAFNKTKKKFSSSLYGSDSGWEGVLAGMDPKIDLDTYSMINERTAYTYEAVTTSAGMIVENPGHGSAYIGSYYDADGNALMGGKNYTLHIEPNPPAANFWSITVYDIKNRLIIRNEIKRSDLSSRSESLVMNSDGSVDLYFGPEAPEGKEGNWIQSNDGESYFMYLRLYGPEQEYFDQTYPMNKIDKTKLEHHHHHH” the protein production was “failed”.

With “MSNVLIINAMKEFAHSKGALNLTLTNVAADFLRESGHQVKITTVDQGYDIESEIENYLWADTIIYQMPAWWMGEPWILKKYIDEVFTDGHGRLYQSDGRTRSDATKGYGSGGLIQGKTYMLSVTWNAPREAFTDPEQFFHGVGVDGVYLPFHKANQFLGMKPLPTFMCNDVIKQPDIEGDIARYRQHLAENVNS” the protein production was “not failed”.

For “MRREALKNAVLKIMTEKMELKNVTHLEETMRLNQDLYIDSVMMLQLIVYIEMDVKLCVPEDEVDPKAFLTVGSLLDFMEELQPLQDVNVNN”, the protein production was “failed”.

For “MAASSSARVAAATAPTASPTSAAPAAPHDGEDNVAADAPYRVLIVEDDRSQALFAQSVLHGAGMHAQVEMTAASVPQAIQDYHPDLILMDLHMPELDGIRLTTLIRQQPGQQLLPIVFLTGDPDPERQFEVLDSGADDFLTKPIRPRHLIAAVSNRIRRARQQALQQAGEQVSVRSNPETGLPTRGHVMDLLADALERKQSGGLFFIEIASALGLRERYGYAAYERLMTQAGHRLASAAQPYPLARLNDNSFLLLAVDMPEASLEQQALEIRQRLSANAFPVREEESVHVRCAIGVAPLGLGFDDTGSALEAVERTALQARLRSDGVQTYLAPSQAEQQEQLRLVEGQLELAYQPIVAVAGGDTAQYQVLLRLRQADGTLLSAGQVIPAAEAAGRIADLDQQVMDHALGLLHLYQHASPPLRLFVSQSPRTLARDAFADWLLKALVERGVAGQSLIVDLRLDDALIHAVTVQQFCAKLMPAGVQFCLSQFEPGDEANALLAQLPLSFVRMANRFADAHGNAAVRDELRGVIDIAHQRGLLIIGQRIEDPQAAAAMWMSGVDFIQGNLVQTVGKELDFDFTSAVL”, the protein production was “failed”.

In the case of “MKVVGLDLGGTKIAAGVFDGKRLLSKVVVPTPKEGGERVAEALAEAAERAEREAGVRGEAIGLGTPGPLDFRRGVIRFAPNIPGVQDFPIRRILEEATGRPVFLENDANAAALAEHHLGAAQGEESSLYLTVSTGIGGGVVLGGRVLRGERGQGGELGHLTLLPGGPACGCGLEGCLEALAAGRALERDATYAFQRPVDTRELFRLFQAGDPKAERLVLQAARYVGIGLASLVKAFDPGVVVLGGGVALNAPEGYWEALLEAYRRYLQGWEAPPLRRARLGAEAGLLGAALTAYLEVKDGSG”, the protein production was “not failed”.

For “MIPLMHDFEGETVLVVGGGSVGARKARTFATEASVVVLSPEFGDRTFADAEKVRAAPTPEDATDWVERTDPALVVAATDDSDLNGAFSTAAAEHGALVNRTDDHGDQSFGNIVVPATVRDDPVTLAIATGGRAPALSKHLRERFEDEFGNAGLMADLVGDLREDLRDRGVPPAKRRDAVRFVVRSREVWKALDSGRSKGEQVARDVIGELPGDQT”, the protein production was “not failed”.

In the case of “MDKLVKYQELVKKLLTNYASDDVSDQDVEVQLILDTERNHYQWMNVGWQGLNRIYRCVIHFDIKDGKIWLQQNLTDRNPAEELVMMGVPREDIVLGLQAPYKRQYTDYGVA”, the protein production was “not failed”.

For “MESWKVNLISVWFGCFFTGLAISQILPFLPLYVSQLGVTSHEALSMWSGLTFSVTFLVSAIVSPMWGSLADRKGRKLMLLRASLGMAIAILLQAFATNVWQLFILRAIMGLTSGYIPNAMALVASQVPRERSGWALSTLSTAQISGVIGGPLLGGFLADHVGLRMVFFITAILLTISFLVTLFLIKEGVRPQVSKSERLTGKQVFASLPYPGLVISLFFTTLVIQLCNGSIGPILALFIKSMAPDSNNIAFLAGMIAAVPGVSALISAPRLGKLGDRIGTSRILLATLCCAVVMFFAMSFVTTPLQLGTLRFLLGFADGAMLPAVQTLLLKYSSDSVTGRIFGYNQSFMYLGNVAGPLIGASVSAMAGFRWVFIATAIIVFINLWQLAWMLRQTRRANA”, the protein production was “not failed”.

In the case of “ERLILCSPYFIPDESLLEAVTSACYRGVTVELFVSEQADQFAIDHAQSSYYQALLEAGVKIYQFPKPDVLHTKYMIADPDDTTGNEALGVLGSSNLDIRSFGLNYEISLMIAKGNLIHELNALTDRYRTVSFKLTLDKWNQR”, the protein production was “failed”.

With “MTRSEAQGRLTGLAPVSVIDIGSNSVRLVVYEGLSRAPAVLFNEKVLCGLGKGLALTGRMHEEGVTRALMALRRFHVLSEQAQAQKLYVLATAAAREAENGPDFIREAEAILGCEIEVLSGEKEALYSAYGVISGFYQPDGIAGDLGGGSLELIDIKDKSCGEGITLPLGGLRLSEQSDGSLEKAATIARKHVKSFAKLLAAGEGRTFYAVGGTWRNIAKLHMEISGYPLHMMQGYELPLEEMLNFLEEVIVSRDSKDPAWQAVSKNRRSLLPFGAIAMREVLRAMKPAKIAFSAQGVREGYLYSLLTEAERESDPLLVAADELAILRARSPEHARELADWSGRTFPVFGIDETEEESRYRQAACLLADISWRAHPDYRGLQALNIIAHSSFVAITHPGRAYIALANYYRFEGLNDNGTTEPLAAMAGERLQELGKLLGGLLRVVYLFSASMPGVVDHLKFRKSDNPDIDLEFVVPHDYCDFAGERLDGRLQQLAKLTGKRLAFVFE” the protein production was “not failed”.

In the case of “MLKPTHFVVAARVTLVLGGLAVAVLALGPFQGAERIVGLNDKAAHAIAFGGLLAVSFLAFPRMRRNDLAIAALVLGAGVEVAQLFGGRSASLLDWLADAAGVLTIYGASMIETVRKMAREQGDMTFAEIAATDRRRARRRAPAVFTPLVETPQTEHAPPLSFAQRAARRFPVS”, the protein production was “failed”.
